US20170190775A1
Each block holds one substance with its values, some of them ahead of it.

Tests used:
[1] = biological target: human TREM-1 (hTREM-1) protein (human) (UniProt Q9NP99); test: SPR, mAb captured by anti-Fc, hTREM-1 as analyte (Example 11)
[2] = biological target: human TREM-1 on cells (human) (UniProt Q9NP99); test: cell-based or functional assay
[3] = biological target: T1, full length cynomolgus monkey (c)TREM-1 on cells (cynomolgus monkey); test: cell-based or functional assay
T1 sequence: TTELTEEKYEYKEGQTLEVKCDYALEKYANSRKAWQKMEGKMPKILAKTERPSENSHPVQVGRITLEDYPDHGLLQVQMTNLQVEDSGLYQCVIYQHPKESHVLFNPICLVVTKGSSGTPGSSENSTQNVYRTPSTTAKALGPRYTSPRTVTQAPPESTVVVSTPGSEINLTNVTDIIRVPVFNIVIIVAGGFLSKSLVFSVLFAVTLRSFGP

[4] = biological target: cynomolgus TREM-1 (cTREM-1) protein (cynomolgus monkey); test: SPR, mAb captured by anti-Fc, cTREM-1 as analyte (Example 11)

human TREM-1 on cells (human), sequence (Q9NP99 21-234 limits assumed): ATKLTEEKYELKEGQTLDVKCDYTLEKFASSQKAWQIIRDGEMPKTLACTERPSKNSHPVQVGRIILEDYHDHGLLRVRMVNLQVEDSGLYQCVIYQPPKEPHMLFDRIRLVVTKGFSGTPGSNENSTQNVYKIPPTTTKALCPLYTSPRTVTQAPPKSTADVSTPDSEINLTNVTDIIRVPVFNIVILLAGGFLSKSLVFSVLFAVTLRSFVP
human TREM-1 (hTREM-1) protein (human), sequence (Q9NP99 21-200 limits assumed): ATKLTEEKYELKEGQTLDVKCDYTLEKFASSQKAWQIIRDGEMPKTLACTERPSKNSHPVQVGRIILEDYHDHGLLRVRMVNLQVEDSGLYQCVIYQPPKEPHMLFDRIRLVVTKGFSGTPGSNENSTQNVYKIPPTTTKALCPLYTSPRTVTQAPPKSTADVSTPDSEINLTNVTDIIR
recombinant human PGLYRP1 expressed from E. coli and refolded, sequence (O75594 22-196 limits assumed): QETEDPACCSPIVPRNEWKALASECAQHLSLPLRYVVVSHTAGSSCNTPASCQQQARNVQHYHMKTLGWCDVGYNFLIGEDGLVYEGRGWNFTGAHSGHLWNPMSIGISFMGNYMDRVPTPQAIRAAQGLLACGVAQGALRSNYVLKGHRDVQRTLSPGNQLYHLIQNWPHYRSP

- Kd [1]: 0.8 nM
- % remaining activity at 0.003 µg/ml, BWZ/hTREM-1 reporter [2]: 98%
- % remaining activity at 0.03 µg/ml, BWZ/hTREM-1 reporter [2]: 103%
- % remaining activity at 0.3 µg/ml, BWZ/hTREM-1 reporter [2]: 90%
- Luminescence, BWZ/hTREM-1 reporter cell + activated neutrophils (8.8 x 10E6 without antibody) [2]: 6.1e+06 luminescence
- normalised reporter signal, PGN-activated neutrophils (normalised signal) [2]: > 1
Substance: clone TREM-37 (Biolegend, cat. no. 316102) (antibody)

- Kd [1]: 3 nM
- % remaining activity at 0.003 µg/ml, BWZ/hTREM-1 reporter [2]: 96%
- % remaining activity at 0.03 µg/ml, BWZ/hTREM-1 reporter [2]: 122%
- % remaining activity at 0.3 µg/ml, BWZ/hTREM-1 reporter [2]: 113%
Substance: HM2252 (clone 6B1, Hycult Biotech) (antibody)

- Kd [1]: 8 nM
- BWZ/hTREM-1 reporter signal, RA synovial fluid, mAb at 0.1 ug/ml, assay 1 [2]: 829000
- BWZ/hTREM-1 reporter signal, RA synovial fluid, mAb at 0.1 ug/ml, assay 2 [2]: 691000
- BWZ/hTREM-1 reporter signal, RA synovial fluid, mAb at 1 ug/ml, assay 1 [2]: 1.19e+06
- BWZ/hTREM-1 reporter signal, RA synovial fluid, mAb at 1 ug/ml, assay 2 [2]: 1.02e+06
- BWZ/hTREM-1 reporter signal, RA synovial fluid, mAb at 10 ug/ml, assay 1 [2]: 1.08e+06
- BWZ/hTREM-1 reporter signal, RA synovial fluid, mAb at 10 ug/ml, assay 2 [2]: 1.05e+06
- IL-6, M2 macrophages on platebound mAb 2 µg/ml [2]: 412 pg/mL
- IL-6, M2 macrophages on platebound mAb 6 µg/ml [2]: 877 pg/mL
- IL-6, M2 macrophages on platebound mAb 20 µg/ml [2]: 1350 pg/mL
- Luminescence, BWZ/hTREM-1 reporter cell + activated neutrophils (8.8 x 10E6 without antibody) [2]: 1e+07 luminescence
- TNFa, M2 macrophages on platebound mAb 2 µg/ml [2]: 2000 pg/mL
- TNFa, M2 macrophages on platebound mAb 6 µg/ml [2]: 6450 pg/mL
- TNFa, M2 macrophages on platebound mAb 20 µg/ml [2]: 7750 pg/mL
- fold induction of the BWZ/hTREM-1 reporter signal by platebound antibody [2]: 32 fold
- induction of NFAT-driven LacZ production, 1-10 µg/ml plate bound antibody against isotype control [2]: 40 fold
- normalised reporter signal, PGN-activated neutrophils (normalised signal) [2]: > 1
Substance: MAB1278 (R&D Systems, cat. no. MAB1278) (antibody)

- Kd [1]: 0.9 nM
- % remaining activity at 0.003 µg/ml, BWZ/hTREM-1 reporter [2]: 100%
- % remaining activity at 0.03 µg/ml, BWZ/hTREM-1 reporter [2]: 124%
- % remaining activity at 0.3 µg/ml, BWZ/hTREM-1 reporter [2]: 108%
- Luminescence, BWZ/hTREM-1 reporter cell + activated neutrophils (8.8 x 10E6 without antibody) [2]: 9.9e+06 luminescence
- normalised reporter signal, PGN-activated neutrophils (normalised signal) [2]: > 1
- % remaining cyno TREM-1 activity at 0.74 ug/ml, reporter cell [3]: 104%
- % remaining cyno TREM-1 activity at 20 ug/ml, reporter cell [3]: 87.7%
- Kd [4]: 4 nM
Substance: clone TREM-26 (Biolegend) (antibody)

- TNF-a release, RA synovial tissue cells + IgG4 + 1 x 10^3 Type II cells [2]: 57.9 pg/mL
- TNF-a release, RA synovial tissue cells + IgG4 + 1 x 10^4 Type II cells [2]: 95 pg/mL
- TNF-a release, RA synovial tissue cells + IgG4 + 1 x 10^5 Type II cells [2]: 121 pg/mL
- TNF-a release, RA synovial tissue cells + IgG4 + 3 x 10^3 Type II cells [2]: 54.6 pg/mL
- TNF-a release, RA synovial tissue cells + IgG4 + 3 x 10^4 Type II cells [2]: 114 pg/mL
Substance: type II PGLYRP1 on transiently transfected HEK cells (ligand)

- GM-CSF, RA synovial tissue cells, PGN + PGLYRP1 (PGN alone 182) [2]: 616 pg/mL
- IL-1beta, RA synovial tissue cells, PGN + PGLYRP1 (PGN alone 2419) [2]: 3770 pg/mL
- IL-6, RA synovial tissue cells, PGN + PGLYRP1 (PGN alone 2057) [2]: 4190 pg/mL
- IL-8, RA synovial tissue cells, PGN + PGLYRP1 (PGN alone 2575) [2]: 5510 pg/mL
- MCP-1, RA synovial tissue cells, PGN + PGLYRP1 (PGN alone 273) [2]: 471 pg/mL
- MIP-1beta, RA synovial tissue cells, PGN + PGLYRP1 (PGN alone 2458) [2]: 4400 pg/mL
- TNFa, normoxic M2 macrophages, PGN-BS + PGLYRP1, donor 1 (PGN-BS alone 427) [2]: 728 pg/mL
- TNFa, normoxic M2 macrophages, PGN-BS + PGLYRP1, donor 2 (PGN-BS alone 381) [2]: 771 pg/mL
- TNFalpha, RA synovial tissue cells, PGN + PGLYRP1 (PGN alone 624) [2]: 1440 pg/mL
- TNF-α, cynomolgus M2 macrophages, PGN + PGRP-S, donor 1 [3]: 295 pg/mL
- TNF-α, cynomolgus M2 macrophages, PGN + PGRP-S, donor 2 [3]: 307 pg/mL
Substance: recombinant human PGLYRP1 expressed from E. coli and refolded (from UniProt O75594 22-196) (ligand)

- Kd [1]: 30 nM
- % remaining activity at 0.003 µg/ml, BWZ/hTREM-1 reporter [2]: 120%
- % remaining activity at 0.03 µg/ml, BWZ/hTREM-1 reporter [2]: 134%
- % remaining activity at 0.3 µg/ml, BWZ/hTREM-1 reporter [2]: 131%
Substance: sc-80394 (clone 98Z12, Santa Cruz Biotechnology) (antibody)

- % remaining activity at 0.003 µg/ml, BWZ/hTREM-1 reporter [2]: 104%
- % remaining activity at 0.03 µg/ml, BWZ/hTREM-1 reporter [2]: 101%
- % remaining activity at 0.3 µg/ml, BWZ/hTREM-1 reporter [2]: 97%
Substance: SAB1405121 (clone 3F5, Sigma Aldrich) (antibody)

- Kd [1]: 20 nM
- % remaining activity at 0.003 µg/ml, BWZ/hTREM-1 reporter [2]: 98%
- % remaining activity at 0.03 µg/ml, BWZ/hTREM-1 reporter [2]: 104%
- % remaining activity at 0.3 µg/ml, BWZ/hTREM-1 reporter [2]: 86%
Substance: WH0054210M4 (clone 2E2, Sigma Aldrich) (antibody)
